In paper doi:10.1101/2021.08.02.454546 (2021):

Target: CV3–25 IgG
Assay: SPR

CV3–25 IgG, sequence (VH, as listed by the source, chain 1 of 2): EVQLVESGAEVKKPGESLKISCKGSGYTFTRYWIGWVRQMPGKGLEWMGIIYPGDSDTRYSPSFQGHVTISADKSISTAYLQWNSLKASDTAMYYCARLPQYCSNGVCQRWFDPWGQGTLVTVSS
CV3–25 IgG, sequence (VL, as listed by the source, chain 2 of 2): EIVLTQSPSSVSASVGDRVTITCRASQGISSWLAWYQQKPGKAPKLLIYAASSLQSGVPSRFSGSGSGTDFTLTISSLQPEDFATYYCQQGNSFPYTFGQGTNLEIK

B1: SARS-CoV-2 S2 peptide #289 (1153-DKYFKNHTSPDVDLG-1167) (peptide)
peptide: DKYFKNHTSPDVDLG
koff: 0.0319 s⁻¹

B2: shorter version of peptide #289 (1153-DKYFKNHTSPD-1163) (peptide)
peptide: DKYFKNHTSPD
koff: 0.0761 s⁻¹
